Data on 1 molecule can be found in paper PMC5442325.

In experiment [1] the target is Deinococcus radiodurans RecA K83R mutant protein (Deinococcus radiodurans) (UniProt P42443).
Experiment [2] concerns the target Deinococcus radiodurans RecA protein (wild type) (Deinococcus radiodurans) (UniProt P42443).

B1: Deinococcus radiodurans RecN protein (wild type) (natural protein)
chain: MTRKARTPKAAPVPEAVAVVEPPPPDAAPTGPRLSRLEIRNLATITQLELELGGGFCAFTGETGAGKSIIVDALGLLLGGRANHDLIRSGEKELLVTGFWGDGDESEADSASRRLSSAGRGAARLSGEVVSVRELQEWAQGRLTIHWQHSAVSLLSPANQRGLLDRRVTKEAQAYAAAHAAWREAVSRLERLQASQRERARQIDLLAFQVQEISEVSPDPGEEEGLNTELSRLSNLHTIAQAAAGGVELLSDGDLNAAGLIGEAVRALNAGAKYDETVMQLQNELRAALESVQAIAGELRDVAEGSAADPEALDRVEARLSALSKLKNKYGPTLEDVVEFGAQAAEELAGLEEDERDAGSLQADVDALHAELLKVGQALDAAREREAEPLVDSLLAVIRELGMPHARMEFALSALAEPAAYGLSDVLLRFSANPGEELGPLSDVASGGELSRVMLAVSTVLGADTPSVVFDEVDAGIGGAAAIAVAEQLSRLADTRQVLVVTHLAQIAARAHHHYKVEKQVEDGRTVSHVRLLTGDERLEEIARMLSGNTSEAALEHARELLAG
As for B1, in experiment [1], the steady-state RecN ATP hydrolysis rate, order of addition RecA K83R+DNA then RecN (reaction 5; 2 μM RecN, 2 μM RecA K83R, 50 μM duplex DNA, buffer N) came out at 56.3 µM/min; the steady-state RecN ATP hydrolysis rate, order of addition RecN+DNA then RecA K83R (reaction 3; 2 μM RecN, 2 μM RecA K83R, 50 μM duplex DNA, buffer N) turned out to be 53.4 µM/min; the steady-state RecN ATP hydrolysis rate, order of addition RecN+RecA K83R then DNA (reaction 4; 2 μM RecN, 2 μM RecA K83R, 50 μM duplex DNA, buffer N) worked out at 47.5 µM/min. Moreover, the nicked circular duplex product of RecA-mediated DNA three-strand exchange under dilute conditions (0.4 μM RecA, 500 nM RecN, 45 min) in experiment [2] was > 3 fold.
